Results from paper PMC6858323 (2019).

B1: PilT^Pa two-hybrid fusion from pKT25::PilT^Pa (wild type) [Pseudomonas aeruginosa] / PilC^Pa two-hybrid fusion from pUT18C::PilC^Pa [Pseudomonas aeruginosa] (parent complex)
chain 1: MDITELLAFSAKQGASDLHLSAGLPPMIRVDGDVRRINLPPLEHKQVHALIYDIMNDKQRKDFEEFLETDFSFEVPGVARFRVNAFNQNRGAGAVFRTIPSKVLTMEELGMGEVFKRVSDVPRGLVLVTGPTGSGKSTTLAAMLDYLNNTKYHHILTIEDPIEFVHESKKCLVNQREVHRDTLGFSEALRSALREDPDIILVGEMRDLETIRLALTAAETGHLVFGTLHTTSAAKTIDRVVDVFPAEEKAMVRSMLSESLQSVISQTLIKKIGGGRVAAHEIMIGTPAIRNLIREDKVAQMYSAIQTGGSLGMQTLDMCLKGLVAKGLISRENAREKAKIPENF
chain 2: MLVKAHLRKQGINPLKVRKKGISLLGAGKKVKPMDIALFTRQMATMMGAGVPLLQSFDIIGEGFDNPNMRKLVDEIKQEVSSGNSLANSLRKKPQYFDELYCNLVDAGEQSGALENLLDRVATYKEKTESLKAKIRKAMTYPIAVIIVALIVSAILLIKVVPQFQSVFQGFGAELPAFTQMVVNLSEFLQEWWLAVIVGVGAIGFTFKELHKRSKKFRDTLDRTILKLPIFGGIVYKSAVARYARTLSTTFAAGVPLVDALDSVSGATGNIVFKNAVSKIKQDVSTGMQLNFSMRTTSVFPNMAIQMTAIGEESGSLDEMLSKVASYYEEEVDNAVDNLTTLMEPMIMAVLGVLVGGLIVAMYLPIFQLGNVVG

Variants of: B1
Assay: bacterial two-hybrid (BACTH), β-galactosidase activity; E. coli BTH101; n = 3; parent: 650; read off a plot

Variant | response [Miller units]
chain 1 MDITELLAFSAKQGASDLHLSAGLPPMIRVDGDVRRINLPPLEHKQVHALIYDIMNDKQRKDFEEFLETDFSFEVPGVARFRVNAFNQNRGAGAVFRTIPSKVLTMEELGMGEVFKRVSDVPRGLVLVTGPTGSGKSTTLAAMLDYLNNTKYHHILTIEDPIEFVHESKKCLVNQREVHRDTLGFSEALRSALREDPDIILVGEMRDLETIRLALRAAETGHLVFGTLHTTSAAKTIDRVVDVFPAEEKAMVRSMLSESLQSVISQTLIKKIGGGRVAAHEIMIGTPAIRNLIREDKVAQMYSAIQTGGSLGMQTLDMCLKGLVAKGLISRENAREKAKIPENF [chain 1 T216R] | ~700
chain 1 MDITELLAFSAKQGASDLHLSAGLPPMIRVDGDVRRINLPPLEHKQVHALIYDIMNDKQRKDFEEFLETDFSFEVPGVARFRVNAFNQNRGAGAVFRTIPSKVLTMEELGMGEVFKRVSDVPRGLVLVTGPTGSGKSTTLAAMLDYLNNTKYHHILTIEDPIEFVHESKKCLVNQREVHRDTLGFSEALRSALREDPDIILVGEMRDLETIRLALTAAETGHLVFGTLHTTSAAKTIDAVVDVFPAEEKAMVRSMLSESLQSVISQTLIKKIGGGRVAAHEIMIGTPAIRNLIREDKVAQMYSAIQTGGSLGMQTLDMCLKGLVAKGLISRENAREKAKIPENF [chain 1 R239A] | ~490
chain 1 MDITELLAFSAKQGASDLHLSAGLPPMIRVDGDVRRINLPPLEHKQVHALIYDIMNDKQRKDFEEFLETDFSFEVPGVARFRVNAFNQNRGAGAVFRTIPSKVLTMEELGMGEVFKRVSDVPRGLVLVTGPTGSGKSTTLAAMLDYLNNTKYHHILTIEDPIEFVHESKKCLVNQREVHRDTLGFSEALRSALREDPDIILVGEMRDLETIRLALTAAETGHLVFGTLHTTSAAKTIDRVVDVFPAEEKAMVRSMLSASLQSVISQTLIKKIGGGRVAAHEIMIGTPAIRNLIREDKVAQMYSAIQTGGSLGMQTLDMCLKGLVAKGLISRENAREKAKIPENF [chain 1 E258A] | ~850
chain 1 MDITELLAFSAKQGASDLHLSAGLPPMIRVDGDVRRINLPPLEHKQVHALIYDIMNDKQRKDFEEFLETDFSFEVPGVARFRVNAFNQNRGAGAVFRTIPSKVLTMEELGMGEVFKRVSDVPRGLVLVTGPTGSGKSTTLAAMLDYLNNTKYHHILTIEDPIEFVHESKKCLVNQREVHRDTLGFSEALRSALREDPDIILVGEMRDLETIRLALTAAETGHLVFGTLHTTSAAKTIDRVVDVFPAEEKAMVRSMLSESLQSVISQTLIKKIGGGRVAAHEIMIGTPAIRNLIEEDKVAQMYSAIQTGGSLGMQTLDMCLKGLVAKGLISRENAREKAKIPENF [chain 1 R294E] | ~200
chain 1 MDITELLAFSAKQGASDLHLSAGLPPMIRVDGDVRRINLPPLEHKQVHALIYDIMNDKQRKDFEEFLETDFSFEVPGVARFRVNAFNQNRGAGAVFRTIPSKVLTMEELGMGEVFKRVSDVPRGLVLVTGPTGSGKSTTLAAMLDYLNNTKYHHILTIEDPIEFVHESKKCLVNQREVHRDTLGFSEALRSALREDPDIILVGEMRDLETIRLALTAAETGHLVFGTLHTTSAAKTIDRVVKVFPAEEKAMVRSMLSESLQSVISQTLIKKIGGGRVAAHEIMIGTPAIRNLIREDKVAQMYSAIQTGGSLGMQTLDMCLKGLVAKGLISRENAREKAKIPENF [chain 1 D242K] | ~670
chain 1 MDITELLAFSAKQGASDLHLSAGLPPMIRVKGDVRRINLPPLEHKQVHALIYDIMNDKQRKDFEEFLETDFSFEVPGVARFRVNAFNQNRGAGAVFRTIPSKVLTMEELGMGEVFKRVSDVPRGLVLVTGPTGSGKSTTLAAMLDYLNNTKYHHILTIEDPIEFVHESKKCLVNQREVHRDTLGFSEALRSALREDPDIILVGEMRDLETIRLALTAAETGHLVFGTLHTTSAAKTIDRVVDVFPAEEKAMVRSMLSESLQSVISQTLIKKIGGGRVAAHEIMIGTPAIRNLIREDKVAQMYSAIQTGGSLGMQTLDMCLKGLVAKGLISRENAREKAKIPENF [chain 1 D31K] | ~220
chain 1 MDITELLAFSAKQGASDLHLSAGLPPMIRVDGDVRRINLPPLEHKQVHALIYDIMNDRQRKDFEEFLETDFSFEVPGVARFRVNAFNQNRGAGAVFRTIPSKVLTMEELGMGEVFKRVSDVPRGLVLVTGPTGSGKSTTLAAMLDYLNNTKYHHILTIEDPIEFVHESKKCLVNQREVHRDTLGFSEALRSALREDPDIILVGEMRDLETIRLALTAAETGHLVFGTLHTTSAAKTIDRVVDVFPAEEKAMVRSMLSESLQSVISQTLIKKIGGGRVAAHEIMIGTPAIRNLIREDKVAQMYSAIQTGGSLGMQTLDMCLKGLVAKGLISRENAREKAKIPENF [chain 1 K58R] | ~750
chain 1 MDITELLAFSAKQGASDLHLSAGLPPMIRVDGDVRRINLPPLEHKQVHALIYDIMNDAQRKDFEEFLETDFSFEVPGVARFRVNAFNQNRGAGAVFRTIPSKVLTMEELGMGEVFKRVSDVPRGLVLVTGPTGSGKSTTLAAMLDYLNNTKYHHILTIEDPIEFVHESKKCLVNQREVHRDTLGFSEALRSALREDPDIILVGEMRDLETIRLALTAAETGHLVFGTLHTTSAAKTIDRVVDVFPAEEKAMVRSMLSESLQSVISQTLIKKIGGGRVAAHEIMIGTPAIRNLIREDKVAQMYSAIQTGGSLGMQTLDMCLKGLVAKGLISRENAREKAKIPENF [chain 1 K58A] | ~700
chain 1 MDITELLAFSAKQGASDLHLSAGLPPMIRVDGDVRRINLPPLEHKQVHALIYDIMNDQQRKDFEEFLETDFSFEVPGVARFRVNAFNQNRGAGAVFRTIPSKVLTMEELGMGEVFKRVSDVPRGLVLVTGPTGSGKSTTLAAMLDYLNNTKYHHILTIEDPIEFVHESKKCLVNQREVHRDTLGFSEALRSALREDPDIILVGEMRDLETIRLALTAAETGHLVFGTLHTTSAAKTIDRVVDVFPAEEKAMVRSMLSESLQSVISQTLIKKIGGGRVAAHEIMIGTPAIRNLIREDKVAQMYSAIQTGGSLGMQTLDMCLKGLVAKGLISRENAREKAKIPENF [chain 1 K58Q] | ~630
chain 1 MDITELLAFSAKQGASDLHLSAGLPPMIRVDGDVRRINLPPLEHKQVHALIYDIMNDKQRKDFEEFLETDFSFEVPGVARFRVNAFNQNRGAGAVFRTIPSKVLTMEELGMGEVFKRVSDVPDGLVLVTGPTGSGKSTTLAAMLDYLNNTKYHHILTIEDPIEFVHESKKCLVNQREVHRDTLGFSEALRSALREDPDIILVGEMRDLETIRLALTAAETGHLVFGTLHTTSAAKTIDRVVDVFPAEEKAMVRSMLSESLQSVISQTLIKKIGGGRVAAHEIMIGTPAIRNLIREDKVAQMYSAIQTGGSLGMQTLDMCLKGLVAKGLISRENAREKAKIPENF [chain 1 R123D] | ~140
chain 1 MDITELLAFSAKQGASDLHLSAGLPPMIRVDGDVRRINLPPLEHKQVHALIYDIMNDKQRKDFEEFLETDFSFEVPGVARFRVNAFNQNRGAGAVFRTIPSKVLTMEELGMGEVFKRVSDVPRGLVLVTGPTGSGKSTTLAAMLDYLNNTKYHHILTIEDPIEFVHESKKCLVNQREVHRDTLGFSEALRSALREDPDIILVGEMRDLETIRLALTAAKTGHLVFGTLHTTSAAKTIDRVVDVFPAEEKAMVRSMLSESLQSVISQTLIKKIGGGRVAAHEIMIGTPAIRNLIREDKVAQMYSAIQTGGSLGMQTLDMCLKGLVAKGLISRENAREKAKIPENF [chain 1 E219K] | ~230
